# From PMC9843451
# B1: Rpa3624 (Rhodopseudomonas palustris CGA009) (protein)
# chain: MSNVRVLATDLAFPEGPVVMPDGSVVLVEIRAQQLTRVWPDGRKEVVAKVPGGPNGAALGPDGKMYICNNGGFGWFPSRGTMMPGAPAPHEYIGGSIQRVDLQSGEVETLFDKCGEHPLKGPNDLVFDKHGGLWFTDLGKRRARDMDVGAAYYIKPGMTEITEQVFGTLPLNGIGLSPDEATMYAAETPTGRLWAFDLSGPGEVKPRDVIYRGEKGKPICGLGGYQMFDSLAVEASGNVCVATLVSGCISVIAPDGTLVEQVPTGDRVTTNIAFGGPDLKTAYITLSGKGELIAMDWSRPGLPLNFLNK
# Experiments:
# Experiment in all cases: purified protein
# Assay type in all cases: biochemical, Rhodopseudomonas palustris
# purified protein [1] = substrate: CCCCCCC1CCC(=O)O1; conditions: 2.5 mM bicine pH 8.3, 150 mM NaCl, 1 mM CaCl2, DMSO, error is 95% CI
# purified protein [2] = substrate: O=C1CCCCO1; conditions: 2.5 mM bicine pH 8.3, 150 mM NaCl, 1 mM CaCl2, DMSO, error is 95% CI
# purified protein [3] = substrate: O=C1CCc2ccccc2O1; conditions: 50 mM Tris pH 8, 150 mM NaCl, 1 mM CaCl2, DMSO, error is 95% CI
protein,measurement,setting,value
B1,Km,purified protein [1],2.36 (1.15–4.82) mM
same,kcat,purified protein [1],135 s⁻¹
same,kcat/Km,purified protein [1],57200 M⁻¹ s⁻¹
same,Km,purified protein [2],74.0 (40.7–133) mM
same,kcat,purified protein [2],754 s⁻¹
same,kcat/Km,purified protein [2],10200 M⁻¹ s⁻¹
same,Km,purified protein [3],1.85 (0.976–3.77) mM
same,kcat,purified protein [3],308 s⁻¹
same,kcat/Km,purified protein [3],166000 M⁻¹ s⁻¹
